T1: human γc protein (Homo sapiens, UniProt P31785)
T1 construct: endogenous in cells; host or cells: Ramos B cells
T1 sequence (P31785 23-369): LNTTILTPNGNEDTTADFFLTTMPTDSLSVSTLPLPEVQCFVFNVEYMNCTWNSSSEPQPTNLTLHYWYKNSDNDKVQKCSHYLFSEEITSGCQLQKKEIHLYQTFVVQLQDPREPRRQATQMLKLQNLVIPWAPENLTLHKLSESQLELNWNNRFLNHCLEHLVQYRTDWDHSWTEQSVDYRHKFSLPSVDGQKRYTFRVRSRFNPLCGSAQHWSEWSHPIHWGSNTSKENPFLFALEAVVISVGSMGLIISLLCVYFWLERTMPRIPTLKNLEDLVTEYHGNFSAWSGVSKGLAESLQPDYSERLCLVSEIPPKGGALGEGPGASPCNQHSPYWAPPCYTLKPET

T2: γc proteins from human (Homo sapiens, UniProt P31785)
T2 construct: extracellular domain of human γc protein (amino acids: 1-262); host or cells: Expi-CHO (e.g.)
T2 sequence (P31785 23-262): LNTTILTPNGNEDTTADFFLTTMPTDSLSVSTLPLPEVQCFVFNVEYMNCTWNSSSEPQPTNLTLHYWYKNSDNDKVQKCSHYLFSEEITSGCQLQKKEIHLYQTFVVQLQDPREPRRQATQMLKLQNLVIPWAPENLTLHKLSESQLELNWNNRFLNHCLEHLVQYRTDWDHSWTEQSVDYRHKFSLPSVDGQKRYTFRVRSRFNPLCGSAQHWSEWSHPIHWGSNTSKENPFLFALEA


Legend:
human γc protein = molecular target: T1, human γc protein; assay: Competition assay on Ramos B cells, flow cytometry; type: binding; settings: unconjugated hSM-05A then FITC-conjugated hSM-05E, 33 nM
Experimental: Purified anti-γc antibodies were conjugated to FITC fluorescent dye and used for the competition assay. In brief, human γc expressing Ramos B cells were first labelled with unconjugated hSM-05A for an hour before further incubation with FITC-conjugated hSM-05E.

HaCaT cells [1] = assay: ADCC assay on HaCaT cells with human PBMC; type: cell-based; settings: 33 nM (5 μg/ml), vs isotype antibody
Experimental: (§1) γc expressing human keratinocyte HaCaT cell line was utilized as the target cells in ADCC and CDC assays. To determine the ADCC activity, HaCaT cell was pre-binded with anti-γc antibodies before co-culture with human PBMC. To determine the CDC activity, HaCaT cell was pre-binded with anti-γc antibodies before incubation with low-endotoxin complement proteins extracted from guinea pig. ADCC was determined by percentage of PI+ HaCaT cells in flow cytometry analysis while CDC was measured by the WST-8 proliferative assay of HaCaT cells in a 96-well plate (FIG. 22A).

IL-7 induced p-STAT5 = assay: Suppression of p-STAT in PBMC, IL-7; type: cell-based, human; settings: antibody 10 μg/ml, compared to isotype control
Experimental: (§2) Given numbers refer to the percentage of inhibition compared to isotype control stimulated with respective γc cytokine. Antibody concentration is 10 μg/ml.

T cells = assay: Mixed lymphocyte reaction (MLR) in human PBMC; type: cell-based; settings: CFSE, flow cytometry
Experimental: To provide hints at effects of humanized antibodies to target GvHD, MLR assay was developed in our PBMC system (FIG. 29A). In brief, total T cells were isolated from PBMC of donor 1 while T cells were depleted from PBMC of donor 2. T cells from donor 1 were activated with a cocktail of anti-CD3 and anti-CD28 antibodies in the presence of IL-2. Simultaneously, T cells were incubated with humanized antibodies or ritlecitinib together with inducing agents. After 3 days, T cells were labelled with CFSE before co-culture with T-cell depleted culture from donor 2 for 6 days. Proliferating T cells were identified as CFSE low or CSFE negative population in flow cytometry.

cynomolgus γc = assay: BLI binding kinetics to cynomolgus γc protein; parameters: species or system cynomolgus (Macaca fascicularis)
HaCaT cells [2] = assay: CDC assay on HaCaT cells with complement; type: cell-based, human; settings: 33 nM (5 μg/ml), vs isotype antibody
Experimental: as §1

γc proteins from human = molecular target: T2, γc proteins from human; assay: ELISA binding of full-length antibodies to human γc; settings: humanized antibodies with back-mutation
Experimental: Selected clones of full-length antibodies were evaluated by ELISA to access the binding specificity. The binding activities of full-length anti-γc antibody were investigated using γc proteins (extracellular domain) from human (SEQ ID NO: 205-206), cynomolgus (Sequence ID: XP_005593949.1, SEQ ID NO: 207-208) and chimpanzee (Sequence ID: XP_008971810.1, SEQ ID NO: 209-210) either purchased from Sino Biological or in-house generated.
Humanized antibodies with back-mutation (hSM-05A and hSM-05E) were tested in the following assays. Binding affinities were investigated in the ELISA assays.

Ramos B cells = assay: WST-8 proliferation assay, IL-4/IL-21 rescue of anti-IgM induced cell death; type: cell-based, human; settings: humanized antibodies; 33 nM (5 μg/ml); vs ritlecitinib
Experimental: The effects of anti-γc antibodies in blocking IL-4 and IL-21 rescues of Ramos cell death after anti-IgM induced hyperactivation were investigated by WST-8 proliferation assay. In brief, Ramos cells (50000 cells in 100 l) were seeded into 96-well plate and stabilized at 37° C. for an hour. Cells were pretreated in anti-γc antibodies or ritlecitinib for an hour, followed by incubation of IL-4 (10 ng/ml) or IL-21 (10 ng/ml) and anti-IgM (2 ug/ml, #109-006-129, Jackson ImmunoResearch). Aft er 48 hours, 10 μl WST-8 reagent (ab228554, Abcam) was added to each well and incubated for 4 hours.
WST-8 could be reduced by cellular dehydrogenases to an orange formazan product, which the amount of formazan produced is directly proportional to the number of living Ramos cells. Optical density (OD) of each well was measured by absorbance at 450 nm using Varioskan LUX Multimode Microplate Reader (ThermoFisher Scientific).

[3] = test system: granzyme and IFNγ secretion; assay: Secretion of granzymes and IFNγ from PBMC culture, ELISA; type: cell-based, human; settings: IL-2 or IL-15, 33 nM, humanized antibodies
Experimental: Activation of T and NK cells in the PBMC culture could be studied by granzyme and IFNγ secretion [Carlin et al., Blood., 2005; 106 (12): 3874-9; Grossman et al., Blood., 2004; 104 (9): 2840-8; Keppel et al., J Immunol., 2015; 194 (4): 1954-1962; Tamang et al., Cytokine., 2006; 36 (3-4): 148-59]. Similar results are obtained in-house that IL-2 and IL-15 but not IL-21 could trigger secretion of granzyme A and IFNγ in PBMC culture (FIG. 15A-B).
Antibodies or ritlecitinib were added into the PBMC culture to investigate their inhibitory effects in the presence of IL-2 or IL-15 treatment.
Releases of cytolytic agents from PBMC culture were further evaluated by ELISA assays.

IL-2 induced p-STAT3 = assay: Suppression of p-STAT in PBMC, IL-2; type: cell-based, human; settings: antibody 10 μg/ml, compared to isotype control
Experimental: as §2

Sequence of cynomolgus γc (as listed by the source): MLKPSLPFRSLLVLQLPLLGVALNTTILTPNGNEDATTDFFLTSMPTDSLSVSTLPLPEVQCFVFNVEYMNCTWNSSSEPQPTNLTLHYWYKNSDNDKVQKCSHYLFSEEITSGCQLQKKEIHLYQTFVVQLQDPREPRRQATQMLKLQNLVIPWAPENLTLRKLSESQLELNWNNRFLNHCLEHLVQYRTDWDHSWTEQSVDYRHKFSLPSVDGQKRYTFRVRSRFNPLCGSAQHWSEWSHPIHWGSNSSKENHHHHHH

| Molecule | epitope competition between hSM-05A and hSM-05E (human γc protein) | ADCC activity (HaCaT cells [1]) | IL-7 induced p-STAT5, percentage of inhibition (IL-7 induced p-STAT5) [%] | inhibition of MLR induced expansion of cytotoxic T cells (T cells) | suppression of MLR induced expansion of T helper cells (T cells) | Ka (cynomolgus γc) [M⁻¹ s⁻¹] | Kdis (cynomolgus γc) [s⁻¹] | CDC activity (HaCaT cells [2]) | ELISA binding to human γc (γc proteins from human) | restimulation of anti-IgM induced cell death in presence of IL-4 or IL-21 (WST-8) (Ramos B cells) | inhibition of IFNγ secretion [3] | IL-2 induced p-STAT3, percentage of inhibition (IL-2 induced p-STAT3) [%] | suppression of granzyme B secretion [3] |
| --- | --- | --- | --- | --- | --- | --- | --- | --- | --- | --- | --- | --- | --- |
| hSM-05A: full-length humanized anti-γc antibody derived from SM-05A by framework patching (antibody, V domains shown) VH: QVQLVQSGAEVLKPGASVKVSCKASGYTFTEYTMHWVKQARGQRLEWIGGIDPYNGGATYNQRFKGKATLTTDTSTSTAYMELRNLRSDDTAVYYCARRRLYYGNALDYWGQGTLVTVSS VL: DIVMTQSPLSLPVTPGEQASISCRSSQSLVHSNGNTYLHWYLQKPGQSPQLLIYKVSSRFSGVPDRFSGSGSGTDFTLKISRVEAEDVGVYFCSQTTHVPFTFGSGTKLEIKR | could compete on a similar epitope on the human γc protein | could not induce any ADCC nor CDC activities | 94.17 | could significantly inhibit | the suppression was milder to T helper cells | 22500 | 0.00683 | could not induce any ADCC nor CDC activities | retained the binding affinity and specificity | can restimulate anti-IgM induced cell death in a comparable level to ritlecitinib | comparable inhibition to IFNγ secretion to ritlecitinib | 89.94 |  |
| hSM-05E: full-length humanized anti-γc antibody derived from SM-05E by framework patching (antibody, V domains shown) VH: QVQLVQSGAEVLKPGASVKVSCKASGYTFTEYTMHWVKQARGQRLEWIGGIDPNTGGVTYNQKFKGKATLTTDTSTSTAYMELRNLRSDDTAVYYCARRRRYYGYALDYWGQGTLVTVSS VL: DIVMTQSPLSLPVTPGEQASISCRSSQSIVHSNGNTYLEWYLQKPGQSPQLLIYKVSNRFSGVPDRFSGSGSGTDFTLKISRVEAEDVGVYFCSQSTHVPFMFGSGTKLEIKR | could compete on a similar epitope on the human γc protein | could not induce any ADCC nor CDC activities | 66.02 | could significantly inhibit | the suppression was milder to T helper cells | 22500 | 0.00683 | could not induce any ADCC nor CDC activities | retained the binding affinity and specificity | can restimulate anti-IgM induced cell death in a comparable level to ritlecitinib | only offered weak suppression to two agents | 58.45 | only offered weak suppression to two agents |
